The target in this assay is luteinizing hormone receptor (LHR) (Homo sapiens, UniProt P22888). Briefly: [125I]-hCG binding to transfected SKOV-3 cells.
Chain of luteinizing hormone receptor (LHR) (P22888 27-699): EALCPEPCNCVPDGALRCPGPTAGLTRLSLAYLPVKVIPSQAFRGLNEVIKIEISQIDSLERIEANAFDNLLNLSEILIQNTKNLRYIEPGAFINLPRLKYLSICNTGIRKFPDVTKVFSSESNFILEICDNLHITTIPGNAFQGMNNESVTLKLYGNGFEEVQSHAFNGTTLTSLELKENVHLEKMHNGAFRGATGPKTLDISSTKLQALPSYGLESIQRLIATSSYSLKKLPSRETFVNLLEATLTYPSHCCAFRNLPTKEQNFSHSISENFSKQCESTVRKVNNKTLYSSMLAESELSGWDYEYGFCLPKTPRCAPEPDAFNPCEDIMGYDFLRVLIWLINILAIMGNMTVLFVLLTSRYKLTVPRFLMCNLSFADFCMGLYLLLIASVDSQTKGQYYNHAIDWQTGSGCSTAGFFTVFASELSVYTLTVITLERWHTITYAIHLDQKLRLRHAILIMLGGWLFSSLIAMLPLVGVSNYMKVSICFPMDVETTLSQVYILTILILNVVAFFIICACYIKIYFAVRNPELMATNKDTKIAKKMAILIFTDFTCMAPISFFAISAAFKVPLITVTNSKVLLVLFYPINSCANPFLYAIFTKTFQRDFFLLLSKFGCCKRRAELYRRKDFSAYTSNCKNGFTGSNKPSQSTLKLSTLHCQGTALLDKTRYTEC

B1: human chorionic gonadotropin (protein)
chain 1: not shown
chain 2: SKEPLRPRCRPINATLAVEKEGCPVCITVNTTICAGYCPTMTRVLQGVLPALPQVVCNYRDVRFESIRLPGCPRGVNPVVSYAVALSCQCALCRRSTTDCGGPKDHPLTCDDPRFQDSSSSKAPPPSLPSPSRLPGPSDTPILPQ
modifications: 125I-labelled hCG
Molecule B1 showed a Kd of 0.3 nM.

The values are drawn from article PMC3141782 (2011).
